{"source": "paper PMC11825297", "target": "GST-tagged actin-binding domain of melanophilin (GST-Mlph-ABD), ATTO-488-labeled (UniProt Q91V27)", "sequence (Q91V27 401-590)": "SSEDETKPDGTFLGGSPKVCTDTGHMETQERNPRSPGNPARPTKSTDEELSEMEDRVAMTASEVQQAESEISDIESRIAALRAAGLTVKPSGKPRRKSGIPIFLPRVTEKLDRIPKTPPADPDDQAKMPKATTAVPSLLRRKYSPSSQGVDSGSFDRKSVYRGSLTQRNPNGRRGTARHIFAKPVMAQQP", "test": "MST; ATTO-488-labeled GST-Mlph-ABD (diluted to 40 nM in MST buffer: 50 mM Tris-HCl pH 7.8, 100 mM NaCl, 10 mM MgCl2, 0.05% Tween-20) mixed 1:1 with a 16-step two-fold dilution series of the His-tagged Myo5a tail from 40 uM in His-tag protein dialysis buffer; Monolith NT.115; three repetitions"}
{"substance": "His-tagged middle tail domain of myosin-5a (His-Myo5a-MTD) (from UniProt Q99104 1-1853) (domain or fragment)", "values": [{"measurement": "Kd", "result": 562, "unit": "nM"}]}
